In patent US20200262877A1, “ION CHANNEL-BINDING PEPTIDES AND METHODS OF USE THEREOF” (priority 2017, published 2020):

How the values were obtained:
TRPV1 = target: T1, TRPV1 (Homo sapiens, UniProt Q8NER1); test: Ion channel panel (IonWorks Barracuda): TRPV1; type: cell-based; settings: 100% = no change, <100% = inhibition
T1 construct: host or cells: HEK293 or CHO
How it was run: (§1)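 Transfected HEK293 or CHO cells were exposed for at least 5 min to peptides at 200 nM and 20 μM final, tested in duplicate, in HEPES-buffered physiological saline. Activation was taken as peptide-plus-agonist current over control current ×100, and inhibition as 1 minus that ratio ×100. Each channel's control was its own reference compound.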

Kir2.1 = target: T2, Kir2.1 (Homo sapiens, UniProt P63252); test: Ion channel panel (IonWorks Barracuda): Kir2.1; type: cell-based; settings: 100% = no change, <100% = inhibition
T2 construct: host or cells: HEK293 or CHO
How it was run: as §1

Nav1.7 = target: T3, Nav1.7 (Homo sapiens, UniProt Q15858); test: cell-based; type: cell-based; settings: 100% = no change; for Activity of Nav1.7 with peptide, expressed as a percentage of the reference compound: peptide at 0.2 μM; for Activity of Nav1.7 with peptide (percentage of the reference compound): peptide at 20 μM
T3 construct: host or cells: HEK293 or CHO
T3 sequence (Q15858 whole entry): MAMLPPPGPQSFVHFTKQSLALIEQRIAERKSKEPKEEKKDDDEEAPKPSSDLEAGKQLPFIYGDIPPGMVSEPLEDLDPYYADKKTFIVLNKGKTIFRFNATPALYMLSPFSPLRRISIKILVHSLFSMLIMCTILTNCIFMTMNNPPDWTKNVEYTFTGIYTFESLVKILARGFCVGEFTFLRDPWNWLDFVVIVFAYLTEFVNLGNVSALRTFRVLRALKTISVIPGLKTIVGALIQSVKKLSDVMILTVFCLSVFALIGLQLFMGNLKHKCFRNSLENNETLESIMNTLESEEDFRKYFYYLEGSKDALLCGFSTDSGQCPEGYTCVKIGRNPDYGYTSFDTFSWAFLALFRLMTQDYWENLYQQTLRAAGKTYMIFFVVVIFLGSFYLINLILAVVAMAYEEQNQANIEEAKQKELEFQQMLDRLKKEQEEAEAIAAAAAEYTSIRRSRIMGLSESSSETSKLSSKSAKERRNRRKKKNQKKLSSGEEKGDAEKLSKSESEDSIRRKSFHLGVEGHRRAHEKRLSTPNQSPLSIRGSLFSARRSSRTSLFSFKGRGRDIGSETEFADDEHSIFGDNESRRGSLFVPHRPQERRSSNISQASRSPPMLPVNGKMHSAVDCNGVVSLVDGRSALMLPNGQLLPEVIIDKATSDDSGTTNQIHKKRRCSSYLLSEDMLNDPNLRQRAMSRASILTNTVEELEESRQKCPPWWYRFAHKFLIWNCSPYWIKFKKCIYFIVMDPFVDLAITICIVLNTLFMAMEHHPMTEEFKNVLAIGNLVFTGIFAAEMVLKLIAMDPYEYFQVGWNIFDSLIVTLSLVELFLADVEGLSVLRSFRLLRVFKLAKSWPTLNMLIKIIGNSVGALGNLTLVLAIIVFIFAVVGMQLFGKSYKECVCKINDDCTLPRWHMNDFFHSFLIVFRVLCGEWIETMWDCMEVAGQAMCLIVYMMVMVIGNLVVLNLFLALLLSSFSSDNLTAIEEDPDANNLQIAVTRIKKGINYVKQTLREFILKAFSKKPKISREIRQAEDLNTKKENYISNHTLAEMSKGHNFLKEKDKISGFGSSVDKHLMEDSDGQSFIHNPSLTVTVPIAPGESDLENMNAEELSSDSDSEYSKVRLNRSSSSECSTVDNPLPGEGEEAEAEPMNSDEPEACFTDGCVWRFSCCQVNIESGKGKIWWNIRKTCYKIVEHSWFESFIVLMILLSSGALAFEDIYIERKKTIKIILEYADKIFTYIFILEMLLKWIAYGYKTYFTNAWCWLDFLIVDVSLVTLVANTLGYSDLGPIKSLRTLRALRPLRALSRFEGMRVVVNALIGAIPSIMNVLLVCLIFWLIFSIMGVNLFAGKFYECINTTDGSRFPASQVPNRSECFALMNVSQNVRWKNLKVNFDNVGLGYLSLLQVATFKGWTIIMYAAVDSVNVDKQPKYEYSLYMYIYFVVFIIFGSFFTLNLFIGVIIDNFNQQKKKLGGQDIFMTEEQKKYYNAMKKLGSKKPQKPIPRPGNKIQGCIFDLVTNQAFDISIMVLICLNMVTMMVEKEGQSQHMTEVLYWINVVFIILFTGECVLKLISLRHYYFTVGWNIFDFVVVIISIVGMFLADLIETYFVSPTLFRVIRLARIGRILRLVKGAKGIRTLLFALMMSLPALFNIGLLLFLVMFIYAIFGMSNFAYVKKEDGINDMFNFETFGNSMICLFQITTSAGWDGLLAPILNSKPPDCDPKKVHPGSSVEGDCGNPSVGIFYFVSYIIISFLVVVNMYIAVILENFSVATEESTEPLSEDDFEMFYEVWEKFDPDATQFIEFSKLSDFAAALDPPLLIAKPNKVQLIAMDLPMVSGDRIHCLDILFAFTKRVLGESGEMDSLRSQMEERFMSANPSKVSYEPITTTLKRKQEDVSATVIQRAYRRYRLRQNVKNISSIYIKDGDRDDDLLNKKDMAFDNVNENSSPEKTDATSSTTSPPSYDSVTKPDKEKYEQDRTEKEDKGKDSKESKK

NR2B = target: T4, NR2B (Homo sapiens, UniProt Q13224); test: Ion channel panel (IonWorks Barracuda): NR2B; type: cell-based; settings: 100% = no change, <100% = inhibition
T4 construct: host or cells: HEK293 or CHO
How it was run: as §1

NR2A = target: T5, NR2A (Homo sapiens, UniProt Q12879); test: Ion channel panel (IonWorks Barracuda): NR2A; type: cell-based; settings: 100% = no change, <100% = inhibition
T5 construct: host or cells: HEK293 or CHO
How it was run: as §1

Cav2.1 = target: T6, Cav2.1 (Homo sapiens, UniProt O00555); test: cell-based; settings: 100% = no change, <100% = inhibition
T6 construct: host or cells: HEK293 or CHO
How it was run: as §1

Cav2.2 = target: T7, Cav2.2 (Homo sapiens, UniProt Q00975); test: cell-based; settings: 100% = no change, <100% = inhibition
T7 construct: host or cells: HEK293 or CHO
How it was run: as §1

Kv2.1 = target: T8, Kv2.1 (Homo sapiens, UniProt Q14721); test: cell-based; settings: 100% = no change, <100% = inhibition
T8 construct: host or cells: HEK293 or CHO
How it was run: as §1

α3β4 = target: T9, α3β4 (Homo sapiens, UniProt P30926+P32297); test: Ion channel panel (IonWorks Barracuda): α3β4; type: cell-based; settings: 100% = no change, <100% = inhibition
T9 construct: host or cells: HEK293 or CHO
How it was run: as §1

α4β2 = target: T10, α4β2 (Homo sapiens, UniProt P17787+P43681); test: Ion channel panel (IonWorks Barracuda): α4β2; type: cell-based; settings: 100% = no change, <100% = inhibition
T10 construct: host or cells: HEK293 or CHO
How it was run: as §1

5HT3a = target: T11, 5HT3a (Homo sapiens, UniProt P46098); test: Ion channel panel (IonWorks Barracuda): 5HT3a; type: cell-based
T11 construct: host or cells: HEK293 or CHO
T11 sequence (P46098 whole entry, looked up): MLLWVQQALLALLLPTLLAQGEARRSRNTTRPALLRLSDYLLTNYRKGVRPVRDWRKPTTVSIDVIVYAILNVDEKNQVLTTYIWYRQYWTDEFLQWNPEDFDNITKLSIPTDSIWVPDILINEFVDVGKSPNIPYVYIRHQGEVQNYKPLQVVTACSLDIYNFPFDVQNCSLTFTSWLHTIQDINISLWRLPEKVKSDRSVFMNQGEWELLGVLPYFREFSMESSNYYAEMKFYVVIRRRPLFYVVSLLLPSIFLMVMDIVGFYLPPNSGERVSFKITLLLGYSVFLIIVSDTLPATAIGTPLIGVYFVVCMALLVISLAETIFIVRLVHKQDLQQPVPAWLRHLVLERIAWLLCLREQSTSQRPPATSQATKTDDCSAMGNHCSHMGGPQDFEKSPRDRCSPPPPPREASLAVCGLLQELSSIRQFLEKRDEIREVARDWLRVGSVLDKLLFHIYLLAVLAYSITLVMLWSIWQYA
How it was run: as §1

hERG = hERG (Homo sapiens, UniProt Q12809); test: in vitro; settings: 100% = no change, <100% = inhibition
How it was run: as §1

Nav1.5 = Nav1.5 (Homo sapiens, UniProt Q14524); test: in vitro; settings: 100% = no change; for Activity of Nav1.5 with peptide, expressed as a percentage of the reference compound: peptide at 0.2 μM; for Activity of Nav1.5 with peptide (percentage of the reference compound): peptide at 20 μM
Sequence of Nav1.5 (Q14524 whole entry): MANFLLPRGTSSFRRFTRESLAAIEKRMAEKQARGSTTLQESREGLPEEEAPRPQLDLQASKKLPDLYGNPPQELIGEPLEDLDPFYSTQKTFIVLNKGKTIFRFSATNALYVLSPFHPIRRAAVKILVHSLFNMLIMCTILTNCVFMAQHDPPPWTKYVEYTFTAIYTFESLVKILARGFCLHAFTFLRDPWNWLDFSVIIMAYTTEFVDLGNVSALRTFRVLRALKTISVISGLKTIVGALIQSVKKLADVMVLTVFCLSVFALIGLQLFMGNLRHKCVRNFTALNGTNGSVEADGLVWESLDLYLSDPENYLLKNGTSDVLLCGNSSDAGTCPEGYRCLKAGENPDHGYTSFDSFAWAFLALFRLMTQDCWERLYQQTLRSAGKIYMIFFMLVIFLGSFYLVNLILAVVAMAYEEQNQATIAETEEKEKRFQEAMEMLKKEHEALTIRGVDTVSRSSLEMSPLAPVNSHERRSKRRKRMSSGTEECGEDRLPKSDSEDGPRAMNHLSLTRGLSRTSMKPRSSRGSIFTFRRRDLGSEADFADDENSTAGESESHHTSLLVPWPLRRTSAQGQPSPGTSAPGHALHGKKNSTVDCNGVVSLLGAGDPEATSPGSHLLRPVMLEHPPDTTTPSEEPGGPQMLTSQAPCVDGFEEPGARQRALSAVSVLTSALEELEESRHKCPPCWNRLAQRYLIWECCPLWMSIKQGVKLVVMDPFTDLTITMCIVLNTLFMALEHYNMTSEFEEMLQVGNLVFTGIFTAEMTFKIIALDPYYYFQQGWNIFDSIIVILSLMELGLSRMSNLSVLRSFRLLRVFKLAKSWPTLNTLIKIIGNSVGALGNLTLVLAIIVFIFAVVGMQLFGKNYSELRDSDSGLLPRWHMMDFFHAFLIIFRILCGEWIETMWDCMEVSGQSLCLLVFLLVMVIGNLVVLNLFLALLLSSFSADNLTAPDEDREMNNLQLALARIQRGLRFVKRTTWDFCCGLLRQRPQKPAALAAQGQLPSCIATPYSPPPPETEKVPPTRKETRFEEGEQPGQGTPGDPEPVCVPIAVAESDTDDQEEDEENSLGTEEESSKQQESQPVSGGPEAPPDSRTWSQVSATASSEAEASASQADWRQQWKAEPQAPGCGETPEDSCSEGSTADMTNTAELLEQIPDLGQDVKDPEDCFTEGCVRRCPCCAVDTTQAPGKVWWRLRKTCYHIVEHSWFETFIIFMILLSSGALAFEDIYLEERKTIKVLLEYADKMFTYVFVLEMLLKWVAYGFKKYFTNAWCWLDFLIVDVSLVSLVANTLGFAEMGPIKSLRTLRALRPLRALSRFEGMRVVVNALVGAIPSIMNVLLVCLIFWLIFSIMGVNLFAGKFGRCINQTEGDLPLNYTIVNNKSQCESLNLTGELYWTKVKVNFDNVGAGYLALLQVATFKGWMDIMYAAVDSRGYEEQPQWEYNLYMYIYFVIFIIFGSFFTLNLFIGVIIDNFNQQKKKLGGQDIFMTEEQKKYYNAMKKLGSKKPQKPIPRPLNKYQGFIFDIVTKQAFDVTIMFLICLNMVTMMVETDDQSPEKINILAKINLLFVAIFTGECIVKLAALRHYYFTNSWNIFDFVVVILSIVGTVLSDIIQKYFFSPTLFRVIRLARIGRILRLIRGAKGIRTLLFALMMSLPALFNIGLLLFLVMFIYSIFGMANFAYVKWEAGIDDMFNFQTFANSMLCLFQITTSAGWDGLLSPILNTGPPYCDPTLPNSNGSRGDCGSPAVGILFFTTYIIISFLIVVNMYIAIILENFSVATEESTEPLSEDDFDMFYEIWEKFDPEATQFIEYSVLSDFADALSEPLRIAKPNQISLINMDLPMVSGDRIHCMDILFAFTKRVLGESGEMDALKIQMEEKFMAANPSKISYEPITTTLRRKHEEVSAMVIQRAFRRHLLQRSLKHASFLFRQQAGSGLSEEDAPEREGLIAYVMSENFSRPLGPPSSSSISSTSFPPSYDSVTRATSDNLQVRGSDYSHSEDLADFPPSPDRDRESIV
How it was run: as §1

TRPA1 = target: T12, TRPA1 (Homo sapiens, UniProt O75762); test: Ion channel panel (IonWorks Barracuda): TRPA1; type: cell-based; settings: 100% = no change, <100% = inhibition
T12 construct: host or cells: HEK293 or CHO
How it was run: as §1

GABA = test: Ion channel panel (IonWorks Barracuda): GABA; type: cell-based; settings: 100% = no change, <100% = inhibition
How it was run: as §1

Kv1.2 = target: T13, Kv1.2 (Homo sapiens, UniProt P16389); test: cell-based; type: cell-based; settings: 100% = no change, <100% = inhibition
T13 construct: host or cells: HEK293 or CHO
T13 sequence (P16389 whole entry): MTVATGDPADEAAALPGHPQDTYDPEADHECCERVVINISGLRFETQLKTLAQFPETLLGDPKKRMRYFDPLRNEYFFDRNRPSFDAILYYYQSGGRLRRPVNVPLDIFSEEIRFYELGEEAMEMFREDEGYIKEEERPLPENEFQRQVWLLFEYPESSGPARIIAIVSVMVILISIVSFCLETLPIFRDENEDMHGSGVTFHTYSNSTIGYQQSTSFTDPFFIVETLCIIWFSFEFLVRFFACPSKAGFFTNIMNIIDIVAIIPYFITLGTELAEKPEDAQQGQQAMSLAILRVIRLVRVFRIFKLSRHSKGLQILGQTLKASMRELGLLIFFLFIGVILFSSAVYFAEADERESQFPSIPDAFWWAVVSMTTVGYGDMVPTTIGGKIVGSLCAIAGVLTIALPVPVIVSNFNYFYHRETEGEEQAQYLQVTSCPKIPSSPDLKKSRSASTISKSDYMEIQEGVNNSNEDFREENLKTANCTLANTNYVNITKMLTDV
How it was run: as §1

Kv1.3 = target: T14, Kv1.3 (Homo sapiens, UniProt P22001); test: cell-based; type: cell-based; settings: 100% = no change, <100% = inhibition
T14 construct: host or cells: HEK293 or CHO
How it was run: as §1

Kv1.1 = target: T15, Kv1.1 (Homo sapiens, UniProt Q09470); test: cell-based; type: cell-based; settings: 100% = no change, <100% = inhibition
T15 construct: host or cells: HEK293 or CHO
T15 sequence (Q09470 whole entry): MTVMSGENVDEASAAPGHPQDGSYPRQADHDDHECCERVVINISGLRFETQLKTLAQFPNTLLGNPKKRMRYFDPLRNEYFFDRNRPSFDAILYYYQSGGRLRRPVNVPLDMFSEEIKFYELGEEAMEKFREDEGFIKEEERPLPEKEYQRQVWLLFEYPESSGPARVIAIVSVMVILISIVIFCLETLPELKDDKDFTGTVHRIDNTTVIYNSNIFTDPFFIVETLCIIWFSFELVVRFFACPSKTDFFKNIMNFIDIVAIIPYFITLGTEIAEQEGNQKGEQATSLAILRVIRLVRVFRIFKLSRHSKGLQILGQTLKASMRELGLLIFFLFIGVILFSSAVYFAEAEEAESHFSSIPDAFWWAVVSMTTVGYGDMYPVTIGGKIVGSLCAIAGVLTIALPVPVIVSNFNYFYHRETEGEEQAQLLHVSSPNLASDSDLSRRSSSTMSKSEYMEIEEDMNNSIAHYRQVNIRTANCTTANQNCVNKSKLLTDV
How it was run: as §1

[1] = first of two Nav1.7 columns (probably TP1)
[2] = second of two Nav1.7 columns (probably TP2)
[3] = first of two Nav1.5 columns (probably TP1)
[4] = second of two Nav1.5 columns (probably TP2)

Substance: 21 (GSAEIIRCSGTRECYAPCQKLTGCLNAKCMNKACKCYGCV) [compound 21]
- Activity of TRPV1 with peptide, expressed as a percentage of the reference compound (TRPV1; peptide at 0.2 μM): 106%
- Activity of TRPV1 with peptide (percentage of the reference compound) (TRPV1; peptide at 20 μM): 86%
- Activity of Kir2.1 with peptide, expressed as a percentage of the reference compound (Kir2.1; peptide at 0.2 μM): 105%
- Activity of Kir2.1 with peptide (percentage of the reference compound) (Kir2.1; peptide at 20 μM): 101%
- Activity of Nav1.7 with peptide, expressed as a percentage of the reference compound (Nav1.7; [1]): 112%
- Activity of Nav1.7 with peptide, expressed as a percentage of the reference compound (Nav1.7; [2]): 120%
- Activity of Nav1.7 with peptide (percentage of the reference compound) (Nav1.7; [1]): 105%
- Activity of Nav1.7 with peptide (percentage of the reference compound) (Nav1.7; [2]): 123%
- Activity of NR2B with peptide, expressed as a percentage of the reference compound (NR2B; peptide at 0.2 μM): 113%
- Activity of NR2B with peptide (percentage of the reference compound) (NR2B; peptide at 20 μM): 105%
- Activity of NR2A with peptide, expressed as a percentage of the reference compound (NR2A; peptide at 0.2 μM): 105%
- Activity of NR2A with peptide (percentage of the reference compound) (NR2A; peptide at 20 μM): 103%
- Activity of Cav2.1 with peptide, expressed as a percentage of the reference compound (Cav2.1; peptide at 0.2 μM): 103%
- Activity of Cav2.1 with peptide (percentage of the reference compound) (Cav2.1; peptide at 20 μM): 106%
- Activity of Cav2.2 with peptide, expressed as a percentage of the reference compound (Cav2.2; peptide at 0.2 μM): 98%
- Activity of Cav2.2 with peptide (percentage of the reference compound) (Cav2.2; peptide at 20 μM): 105%
- Activity of Kv2.1 with peptide, expressed as a percentage of the reference compound (Kv2.1; peptide at 0.2 μM): 110%
- Activity of Kv2.1 with peptide (percentage of the reference compound) (Kv2.1; peptide at 20 μM): 108%
- Activity of a3b4 with peptide, expressed as a percentage of the reference compound (α3β4; peptide at 0.2 μM): 102%
- Activity of a3b4 with peptide (percentage of the reference compound) (α3β4; peptide at 20 μM): 93%
- Activity of a4b2 with peptide, expressed as a percentage of the reference compound (α4β2; peptide at 0.2 μM): 102%
- Activity of a4b2 with peptide (percentage of the reference compound) (α4β2; peptide at 20 μM): 85%
- Activity of 5HT3a with peptide (percentage of the reference compound) (5HT3a): 91%
- Activity of 5HT3a with peptide, expressed as a percentage of the reference compound (5HT3a): 87%
- Activity of hERG with peptide, expressed as a percentage of the reference compound (hERG; peptide at 0.2 μM): 109%
- Activity of hERG with peptide (percentage of the reference compound) (hERG; peptide at 20 μM): 72%
- Activity of Nav1.5 with peptide, expressed as a percentage of the reference compound (Nav1.5; [3]): 108%
- Activity of Nav1.5 with peptide, expressed as a percentage of the reference compound (Nav1.5; [4]): 105%
- Activity of Nav1.5 with peptide (percentage of the reference compound) (Nav1.5; [3]): 96%
- Activity of Nav1.5 with peptide (percentage of the reference compound) (Nav1.5; [4]): 91%
- Activity of TRPA1 with peptide, expressed as a percentage of the reference compound (TRPA1; peptide at 0.2 μM): 119%
- Activity of TRPA1 with peptide (percentage of the reference compound) (TRPA1; peptide at 20 μM): 95%
- Activity of GABA with peptide, expressed as a percentage of the reference compound (GABA; peptide at 0.2 μM): 111%
- Activity of GABA with peptide (percentage of the reference compound) (GABA; peptide at 20 μM): 123%
- Activity of Kv1.2 with peptide, expressed as a percentage of the reference compound (Kv1.2; peptide at 0.2 μM): 52%
- Activity of Kv1.2 with peptide (percentage of the reference compound) (Kv1.2; peptide at 20 μM): 36%
- Activity of Kv1.3 with peptide, expressed as a percentage of the reference compound (Kv1.3; peptide at 0.2 μM): 65%
- Activity of Kv1.3 with peptide (percentage of the reference compound) (Kv1.3; peptide at 20 μM): 5%
- Activity of Kv1.1 with peptide, expressed as a percentage of the reference compound (Kv1.1; peptide at 0.2 μM): 106%
- Activity of Kv1.1 with peptide (percentage of the reference compound) (Kv1.1; peptide at 20 μM): 98%
